Values joined by “and” are separate entries in the source; they are usually repeats but may differ in a detail not shown here. Equal values may be shown once.
B1: murine/human chimeric mAb Ab-1 (2B04) (antibody, V domains shown)
VH: QVQLKQSGPGLVAPSQSLSITCTVSGFSLINYAISWVRQPPGKGLEWLGVIWTGGGTNYNSALKSRLSISKDNSKSQVFLKMNSLQTDDTARYYCARKDYYGRYYGMDYWGQGTSVTVSS
VL: QAVVTQESALTTSPGETVTLTCRSSTGAVTTSNYANWVQEKPDHLFTGLIGGTNNRAPGVPARFSGSLIGDKAALTITGAQTEDEAIYFCALWYNNHWVFGGGTKLTVL
B2: Hu-Ab-1 (Hu-2B04) (antibody, V domains shown)
VH: EVQLQESGPGLVKPSETLSLTCTVSGFSLINYAISWVRQPAGKGLEWLGVIWTGGGTNYNAALKSRLSISKDNSKSQVSLKMNSVTAADTAVYYCARKDYYGRYYGMDYWGQGTTVTVSS
VL: QAVVTQEPSLTVSPGGTVTLTCRSSTGAVTTSNYANWVQEKPGQAFRGLIGGTNNRAPGVPARFSGSLLGDKAALTLSGAQPEDEAEYFCALWYNNHWVFGGGTKLTVLG
B3: 2H04 (antibody, V domains shown)
VH: EVQLQQSGAELVKPGASVKMSCKASGYTFTSYWITWVKQRPGQGLEWIGDIYPGSGSTKYNEKFRSEATLTVDTSSTTAYMQLSSLTSEDSAVYYCARWDFYGSRTFDYWGQGTTLTVSS
VL: DIVLTQSPAILSVSPGERVSFSCRASQNIGTIIHWYQQRTNGSPRLLIKYASESVSGIPSRFSGSGSGTDFTLSINSVESEDIADYYCQQSSSWPLTFGAGTKLELK

Biological target: S protein of infectious SARS-CoV-2 strain 2019 n-CoV/USA_WA1/2020 (SARS-CoV-2, UniProt P0DTC2 14-1273)
Assay: cell-based or functional assay

Binder	IC50, focus reduction neutralization test (FRNT) on Vero E6 cells [ng/mL]	IC50, neutralization of infectious SARS-CoV-2	IC50, live virus neutralization assay [ng/mL]
B1	1.46	< 2 ng/mL and < 500 ng/mL	–
B2	–	–	1.65
B3	–	< 500 ng/mL	–

Source: patent US20220017604A1 (WASHINGTON UNIVERSITY, published 2022)
